Assay results reported in PMC7276988, “Cryo-EM Structure of the Fork Protection Complex Bound to CMG at a Replication Fork” (Molecular Cell, 2020).

T1: Mcm7 (S. cerevisiae, UniProt P38132 1-845)
T1 construct: Mcm7, S. cerevisiae, subunit of CMG; source: S. cerevisiae, overexpressed, purified as part of CMG
T1 sequence: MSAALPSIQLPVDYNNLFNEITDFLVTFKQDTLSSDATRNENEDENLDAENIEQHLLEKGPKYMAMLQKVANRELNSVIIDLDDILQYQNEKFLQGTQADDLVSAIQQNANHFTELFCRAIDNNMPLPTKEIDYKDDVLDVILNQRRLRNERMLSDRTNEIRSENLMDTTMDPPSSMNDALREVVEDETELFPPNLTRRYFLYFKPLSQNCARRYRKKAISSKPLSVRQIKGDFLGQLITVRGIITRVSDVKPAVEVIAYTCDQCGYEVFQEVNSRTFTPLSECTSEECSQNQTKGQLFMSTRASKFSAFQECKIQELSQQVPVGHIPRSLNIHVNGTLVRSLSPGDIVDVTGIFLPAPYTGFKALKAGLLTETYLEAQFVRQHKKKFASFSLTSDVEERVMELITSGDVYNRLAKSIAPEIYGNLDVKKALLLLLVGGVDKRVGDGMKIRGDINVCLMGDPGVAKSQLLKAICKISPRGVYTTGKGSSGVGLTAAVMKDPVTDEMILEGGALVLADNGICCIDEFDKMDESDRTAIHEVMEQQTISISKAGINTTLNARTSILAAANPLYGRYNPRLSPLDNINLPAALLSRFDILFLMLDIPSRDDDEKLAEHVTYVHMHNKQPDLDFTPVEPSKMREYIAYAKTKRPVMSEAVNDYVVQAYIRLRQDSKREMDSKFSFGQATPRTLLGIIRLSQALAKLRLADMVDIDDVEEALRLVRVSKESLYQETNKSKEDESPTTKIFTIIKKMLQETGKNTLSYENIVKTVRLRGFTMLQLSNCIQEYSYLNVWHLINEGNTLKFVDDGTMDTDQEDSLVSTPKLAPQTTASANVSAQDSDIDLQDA

B1: Csm3 (natural protein, S. cerevisiae)
chain: MDQDFDSLLLGFNDSDSVQKDPTVPNGLDGSVVDPTIADPTAITARKRRPQVKLTAEKLLSDKGLPYVLKNAHKRIRISSKKNSYDNLSNIIQFYQLWAHELFPKAKFKDFMKICQTVGKTDPVLREYRVSLFRDEMGMSFDVGTRETGQDLERQSPMVEEHVTSAEERPIVADSFAQDKRNVNNVDYDNDEDDDIYHLSYRNRRGRVLDERGNNETVLNNVVPPKEDLDALLKTFRVQGPVGLEENEKKLLLGWLDAHRKMEKGSMTEEDVQLIQSLEEWEMNDIEGQHTHYDLLPGGDEFGVDQDELDAMKEMGF
notes: Csm3, S. cerevisiae; residues 46-139 are resolved in the map; The Csm3 chain of m2; source: S. cerevisiae, overexpressed with Tof1, purified as Csm3/Tof1; in XL-MS part of the co-expressed, co-purified complex (yJY74)
B2: Ctf4 (natural protein, S. cerevisiae)
chain: MVSVIDKLVFDFGGKTLVSLAPDNNTLCVANKNGLTKILKTNNPEEEPETLDSSKLVSSIKCYSNSHFLMTTMQGDALRYNIDSSQEELLARFALPLRDCCVIHSGKMAVFGGDDLELILLELDDETHKKHAIKIDEQVSQISYNSQMNILAVSMINGKVQIFSLTSTIPNKVHELNDYIVANSYDDTHRDKILSNMMDDIDKDNDNDLSETADPDENNVADPEFCAANRICTRVAWHPKGLHFALPCADDTVKIFSIKGYSLQKTLSTNLSSTKAHFIDLQFDPLRGTYIAAVDLNNKLTVWNWETSEIHYTREFKRKITNIAWKIQADSKTLDLVLGTWSGSIAIVQNLAESVVSNIPDQSVAESSTKHGLFVDSESDLENLEGNDDINKSDKLFSDITQEANAEDVFTQTHDGPSGLSEKRKYNFEDEEDFIDDDDGAGYISGKKPHNEHSYSRVHKTHSFPISLANTGKFRYMPFSPAGTPFGFTDRRYLTMNEVGYVSTVKNSEQYSITVSFFDVGRFREYHFEDLFGYDLCFLNEKGTLFGQSKTGQIQYRPHDSIHSNWTKIIPLQAGERITSVAATPVRVIVGTSLGYFRSFNQFGVPFAVEKTSPIVALTAQNYRVFSVHYSQFHGLSYSLSELGTSSKRYYKRECPLPMSLPNINSDMKKDANLDYYNFNPMGIKSLFFSSYGDPCIFGSDNTLLLLSKWRSPEESKWLPILDSNMEIWKMSGGKETTDIHVWPLALAYDTLNCILVKGKHIWPEFPLPLPSEMEIRMPVFVKSKLLEENKAILNKKNEIGADTEAEEGEEDKEIQIPVSMAAEEEYLRSKVLSELLTDTLENDGEMYGNENEVLAALNGAYDKALLRLFASACSDQNVEKALSLAHELKQDRALTAAVKISERAELPSLVKKINNIREARYEQQLK
notes: Ctf4, S. cerevisiae; only the C-terminal part is resolved in the map; Homotrimer; also called Ctf4 trimer; Ctf4_(3); source: purified as previously described (Yeeles et al., 2015); also co-expressed with CMG, Csm3/Tof1 and Mrc1 in S. cerevisiae yJY74 and co-purified

What was measured:
[1] = molecular target: T1, Mcm7; assay: cryo-EM structure; reconstituted from purified CMG, fork DNA, Csm3/Tof1, Ctf4, Mrc1 with AMP-PNP; glycerol gradient fixation (glutaraldehyde and BS3); settings: both partners purified
[2] = molecular target: the molecule itself; assay: as above

Binder | binding result [1] | stoichiometry N [2]
B1 | binds | 
B2 |  | 3
